Reference: the supplement of paper PMC10065799, “High-throughput profiling of sequence recognition by tyrosine kinases and SH2 domains using bacterial peptide display” (eLife, 2023)

Each sequence was assayed against FGFR1 (UniProt P11362) (assay: phosphorylation enrichment, bacterial display (enrichment ratio); higher = better substrate or ligand; peptides without Tyr show the background).
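For SH2 binding enrichment of the phosphorylated peptide, bacterial display in this document: peptide library displayed on the E. coli surface as eCPX fusions, selected cells deep-sequenced, score is each peptide's frequency after selection divided by its frequency in the input.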
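For phosphorylation enrichment, bacterial display in this document: 11-residue human phosphosite peptides and single-mutation variants displayed on the E. coli surface, counted by deep sequencing, each peptide's frequency after selection divided by its frequency in the unselected input library; frequency after pTyr selection over input frequency; kinase dosed for 20-30% of maximal phosphorylation in three min.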

Sequence of FGFR1 (P11362 whole entry, looked up, the tested form may be a part): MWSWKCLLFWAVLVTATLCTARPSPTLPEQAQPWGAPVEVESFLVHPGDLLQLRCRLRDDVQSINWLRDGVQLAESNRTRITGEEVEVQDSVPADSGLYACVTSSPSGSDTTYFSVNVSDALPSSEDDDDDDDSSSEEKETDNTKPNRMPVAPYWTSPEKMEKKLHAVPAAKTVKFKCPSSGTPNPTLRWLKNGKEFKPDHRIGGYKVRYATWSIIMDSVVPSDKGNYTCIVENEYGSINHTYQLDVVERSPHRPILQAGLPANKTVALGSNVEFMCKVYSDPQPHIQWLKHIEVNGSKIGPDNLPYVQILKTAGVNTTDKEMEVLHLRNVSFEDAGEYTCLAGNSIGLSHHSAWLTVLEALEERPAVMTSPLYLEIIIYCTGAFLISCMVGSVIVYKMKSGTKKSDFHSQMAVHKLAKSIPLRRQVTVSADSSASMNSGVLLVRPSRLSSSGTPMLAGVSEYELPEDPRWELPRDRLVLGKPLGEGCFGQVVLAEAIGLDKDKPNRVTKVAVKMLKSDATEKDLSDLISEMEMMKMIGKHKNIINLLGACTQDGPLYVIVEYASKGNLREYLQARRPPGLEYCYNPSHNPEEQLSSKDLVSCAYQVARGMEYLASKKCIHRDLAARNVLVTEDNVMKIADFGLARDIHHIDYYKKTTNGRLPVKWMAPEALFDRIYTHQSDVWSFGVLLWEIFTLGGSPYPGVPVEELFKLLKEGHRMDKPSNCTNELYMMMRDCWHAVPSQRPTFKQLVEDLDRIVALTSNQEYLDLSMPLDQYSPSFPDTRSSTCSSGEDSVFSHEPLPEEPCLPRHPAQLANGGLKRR

Q: Which phosphorylation enrichment does the source give for LLNPRYNLPLD [TOM1L1_Y109] here?
A: Its phosphorylation enrichment is 0.645.

Q: SDGHEYIFVDR [PDGFRB_Y579_P584R_YF] was tested. Which phosphorylation enrichment did it give?
A: Its phosphorylation enrichment is 1.04.

Q: ECKHLYSRKEG [PTPN11_Y263_L261H] was tested. Which phosphorylation enrichment did it give?
A: Its phosphorylation enrichment is 0.463.

Q: With WDLPEYSYKDP [ITGA3_Y237_S235P] as the sequence, how does the phosphorylation enrichment read?
A: The phosphorylation enrichment was 0.688.

Q: How did the phosphorylation enrichment turn out when AHPIIYTIIEA [PYKtide_no-pT_2014] was run?
A: The phosphorylation enrichment was 1.57.

Q: GKMPQYLESMQ [CYB5R3_Y130_S128P] was tested. Which phosphorylation enrichment did it give?
A: Its phosphorylation enrichment is 0.517.

Q: With DFEGLYQEGGG [TMEM159_Y159_E154D] as the sequence, how does the phosphorylation enrichment read?
A: The phosphorylation enrichment was 0.761.

Q: Which phosphorylation enrichment does the source give for FKDYFYCWNTS [AICDA_Y146_F151S] here?
A: Its phosphorylation enrichment is 11.2.

Q: With WNDLDYVDSRR [GAA_Y407_M408V] as the sequence, how does the phosphorylation enrichment read?
A: The phosphorylation enrichment was 0.567.

Q: For REQREYLEQLN [CCDC88B_Y1277_D1279E], which phosphorylation enrichment is on record?
A: The phosphorylation enrichment was 0.611.

Q: Which phosphorylation enrichment does the source give for MKKMHYVDPDR [ST3GAL5_Y99_H104R] here?
A: The phosphorylation enrichment was 0.331.

Q: With TESALYGCTVL [KIAA1804_Y724] as the sequence, how does the phosphorylation enrichment read?
A: Its phosphorylation enrichment is 0.559.

Q: Which phosphorylation enrichment does the source give for FTTIHYNFMCN [TP53_Y234_C229Y_YF] here?
A: The phosphorylation enrichment was 0.682.

Q: For PRSRSYFSTSI [REPS2_Y462_S463F], which phosphorylation enrichment is on record?
A: The phosphorylation enrichment was 0.457.

Q: How did the phosphorylation enrichment turn out when HLELNYKEDEY [MME_Y502_Y497H] was run?
A: Its phosphorylation enrichment is 0.487.

Q: For FQNGMYGLHQD [SGSH_Y89_H84Y_YF], which phosphorylation enrichment is on record?
A: The phosphorylation enrichment was 0.462.

Q: With HVSISYDIPPT [GAB1_Y307] as the sequence, how does the phosphorylation enrichment read?
A: The phosphorylation enrichment was 0.677.

Q: With IQRSLYDCPAS [PDGFRA_Y762_R764C] as the sequence, how does the phosphorylation enrichment read?
A: Its phosphorylation enrichment is 0.592.

Q: IPPRRYFCSGV [STAMBP_Y36_R38C] was tested. Which phosphorylation enrichment did it give?
A: The phosphorylation enrichment was 0.428.

Q: For FEPDAYDDLDQ [ELP5_Y302_YF], which phosphorylation enrichment is on record?
A: Its phosphorylation enrichment is 0.573.

Q: For RQNQEYEILLD [KRT39_Y379], which phosphorylation enrichment is on record?
A: The phosphorylation enrichment was 0.622.

Q: How did the phosphorylation enrichment turn out when AKYLGYPPPEI [KDR_Y357] was run?
A: The phosphorylation enrichment was 0.395.

Q: How did the phosphorylation enrichment turn out when RLLVVYPWTQG [HBG2_Y36_R41G] was run?
A: Its phosphorylation enrichment is 0.603.

Q: EEGRVYVFHLS [ITGAE_Y549_R552H_YF] was tested. Which phosphorylation enrichment did it give?
A: The phosphorylation enrichment was 0.557.

Q: For DKATEYIQYMR [MAX_Y70], which phosphorylation enrichment is on record?
A: The phosphorylation enrichment was 0.479.

Q: How did the phosphorylation enrichment turn out when RSPLRYISILT [OR51B6_Y130_T131I] was run?
A: Its phosphorylation enrichment is 0.676.

Q: How did the phosphorylation enrichment turn out when LQTFRYHGLSM [PDHA1_Y289_H292L_YF] was run?
A: Its phosphorylation enrichment is 0.835.

Q: Which phosphorylation enrichment does the source give for QYQLKYSETPF [SIX6OS1_Y129] here?
A: The phosphorylation enrichment was 0.598.

Q: For KNSFKYYMSDD [ATRX_Y203_C200S], which phosphorylation enrichment is on record?
A: Its phosphorylation enrichment is 0.486.

Q: TSQSQYFSFRE [CCDC170_Y323] was tested. Which phosphorylation enrichment did it give?
A: Its phosphorylation enrichment is 1.62.

Q: With TEAEPYYCSLR [NPHS1_Y1138_R1140C] as the sequence, how does the phosphorylation enrichment read?
A: Its phosphorylation enrichment is 1.49.

Q: With EVKAQNEDIAQ [KRT1_Y358_Y358N] as the sequence, how does the phosphorylation enrichment read?
A: The phosphorylation enrichment was 0.54.

Q: Which phosphorylation enrichment does the source give for RHPFFFAPELL [ALB_Y174_Y174F_YF] here?
A: Its phosphorylation enrichment is 0.619.

These sequences were tested against SHP2-C SH2 (assay: SH2 binding enrichment of the phosphorylated peptide, bacterial display (enrichment ratio); higher = better substrate or ligand; peptides without Tyr show the background).

Q: Which SH2 binding enrichment does the source give for LLNPRYNLPLD [TOM1L1_Y109] here?
A: The SH2 binding enrichment was 0.827.

Q: With SDGHEYIFVDR [PDGFRB_Y579_P584R_YF] as the sequence, how does the SH2 binding enrichment read?
A: Its SH2 binding enrichment is 0.676.

Q: For ECKHLYSRKEG [PTPN11_Y263_L261H], which SH2 binding enrichment is on record?
A: Its SH2 binding enrichment is 0.711.

Q: With WDLPEYSYKDP [ITGA3_Y237_S235P] as the sequence, how does the SH2 binding enrichment read?
A: The SH2 binding enrichment was 0.77.

Q: AHPIIYTIIEA [PYKtide_no-pT_2014] was tested. Which SH2 binding enrichment did it give?
A: The SH2 binding enrichment was 1.66.

Q: How did the SH2 binding enrichment turn out when GKMPQYLESMQ [CYB5R3_Y130_S128P] was run?
A: The SH2 binding enrichment was 0.932.

Q: DFEGLYQEGGG [TMEM159_Y159_E154D] was tested. Which SH2 binding enrichment did it give?
A: The SH2 binding enrichment was 0.461.

Q: How did the SH2 binding enrichment turn out when FKDYFYCWNTS [AICDA_Y146_F151S] was run?
A: The SH2 binding enrichment was 0.542.

Q: How did the SH2 binding enrichment turn out when WNDLDYVDSRR [GAA_Y407_M408V] was run?
A: Its SH2 binding enrichment is 0.796.

Q: Which SH2 binding enrichment does the source give for REQREYLEQLN [CCDC88B_Y1277_D1279E] here?
A: Its SH2 binding enrichment is 0.73.

Q: With MKKMHYVDPDR [ST3GAL5_Y99_H104R] as the sequence, how does the SH2 binding enrichment read?
A: The SH2 binding enrichment was 0.76.

Q: TESALYGCTVL [KIAA1804_Y724] was tested. Which SH2 binding enrichment did it give?
A: The SH2 binding enrichment was 0.916.

Q: For FTTIHYNFMCN [TP53_Y234_C229Y_YF], which SH2 binding enrichment is on record?
A: Its SH2 binding enrichment is 0.658.

Q: PRSRSYFSTSI [REPS2_Y462_S463F] was tested. Which SH2 binding enrichment did it give?
A: The SH2 binding enrichment was 0.906.

Q: How did the SH2 binding enrichment turn out when HLELNYKEDEY [MME_Y502_Y497H] was run?
A: The SH2 binding enrichment was 0.535.

Q: How did the SH2 binding enrichment turn out when FQNGMYGLHQD [SGSH_Y89_H84Y_YF] was run?
A: The SH2 binding enrichment was 0.724.

Q: For HVSISYDIPPT [GAB1_Y307], which SH2 binding enrichment is on record?
A: Its SH2 binding enrichment is 0.548.

Q: IQRSLYDCPAS [PDGFRA_Y762_R764C] was tested. Which SH2 binding enrichment did it give?
A: The SH2 binding enrichment was 1.04.

Q: For IPPRRYFCSGV [STAMBP_Y36_R38C], which SH2 binding enrichment is on record?
A: The SH2 binding enrichment was 0.621.

Q: With FEPDAYDDLDQ [ELP5_Y302_YF] as the sequence, how does the SH2 binding enrichment read?
A: The SH2 binding enrichment was 0.807.

Q: For RQNQEYEILLD [KRT39_Y379], which SH2 binding enrichment is on record?
A: The SH2 binding enrichment was 1.57.

Q: For AKYLGYPPPEI [KDR_Y357], which SH2 binding enrichment is on record?
A: Its SH2 binding enrichment is 0.749.

Q: Which SH2 binding enrichment does the source give for RLLVVYPWTQG [HBG2_Y36_R41G] here?
A: Its SH2 binding enrichment is 1.82.

Q: For EEGRVYVFHLS [ITGAE_Y549_R552H_YF], which SH2 binding enrichment is on record?
A: Its SH2 binding enrichment is 0.567.

Q: For DKATEYIQYMR [MAX_Y70], which SH2 binding enrichment is on record?
A: Its SH2 binding enrichment is 1.4.

Q: How did the SH2 binding enrichment turn out when RSPLRYISILT [OR51B6_Y130_T131I] was run?
A: The SH2 binding enrichment was 1.33.

Q: LQTFRYHGLSM [PDHA1_Y289_H292L_YF] was tested. Which SH2 binding enrichment did it give?
A: Its SH2 binding enrichment is 0.448.

Q: Which SH2 binding enrichment does the source give for QYQLKYSETPF [SIX6OS1_Y129] here?
A: The SH2 binding enrichment was 0.598.

Q: With KNSFKYYMSDD [ATRX_Y203_C200S] as the sequence, how does the SH2 binding enrichment read?
A: The SH2 binding enrichment was 0.661.

Q: For TSQSQYFSFRE [CCDC170_Y323], which SH2 binding enrichment is on record?
A: Its SH2 binding enrichment is 0.999.

Q: TEAEPYYCSLR [NPHS1_Y1138_R1140C] was tested. Which SH2 binding enrichment did it give?
A: The SH2 binding enrichment was 0.73.

Q: How did the SH2 binding enrichment turn out when EVKAQNEDIAQ [KRT1_Y358_Y358N] was run?
A: Its SH2 binding enrichment is 0.669.

Q: With RHPFFFAPELL [ALB_Y174_Y174F_YF] as the sequence, how does the SH2 binding enrichment read?
A: Its SH2 binding enrichment is 1.44.
